Measured values from patent CN108610419A.

B1: m14C5B (antibody, mouse IgG1, V domains shown)
VH: EVQLQQSGPELEKPGASVKISCRTSGYSFTMYNINWVKQTNGKSLEWIGNLDAYYGGSNYNPKFKDKATLTVDISSNTAFMQLWSLTSEDSAVYYCTRILWSRDFYTMDYWGRGTSVTVSS
VL: DIQVTQTSSSLSASLGDRVTITCRTSQDISNYLHWYQQTPDGTVKLLIYSTSTGHSGVPSRFSGSGSGTDYSLTISNLEQEDIATYFCQQSYTLAYTFGGGTKLEIKR
B2: hu14C5B (antibody, V domains shown, not shown: a dimerising Fc or GST)
VH: EVQLVESGGGLVQPGGSLRLSCAASGYSFTMYNINWVKQAPGKGLEWIGNLDAYYGGSNYNPKFKDKATLSRDNSKNTAYLQMNSLRAEDTAVYYCTRILWSRDFYTMDYWGQGTLVTVSS
VL: DIQVTQSPSSLSASVGDRVTITCRTSQDISNYLHWYQQKPGKAPKLLIYSTSTGHSGVPSRFSGSGSGTDFTLTISSLQPEDFATYFCQQSYTLAYTFGQGTKVEIKR
B3: hu14C5B-2 (antibody, V domains shown, not shown: a dimerising Fc or GST)
VH: EVQLVESGGGLVQPGGSLRLSCAASGFTFSLYNINWVKQAPGKGLEWIGNLDPYYGGSNYNPKFKDKATLSRDNSKNTAYLQMNSLRAEDTAVYYCTRILWSRDYYTMDYWGQGTLVTVSS
VL: DIQVTQSPSSLSASVGDRVTITCRTSQDISNYLHWYQQKPGKAPKLLIYSTSTAHSGVPSRFSGSGSGTDFTLTISSLQPEDFATYFCQQSYTLLYTFGQGTKVEIKR
B4: hu14C5B-5 (antibody, human IgG1, kappa, V domains shown)
VH: EVQLVESGGGLVQPGGSLRLSCAASGFTFSAYNINWVKQAPGKGLEWIGNLDPYYGGSNYNPKFKDKATLSRDNSKNTAYLQMNSLRAEDTAVYYCTRILWSRDYYTMDYWGQGTLVTVSS
VL: DIQVTQSPSSLSASVGDRVTITCRTSQDISNYLHWYQQKPGKAPKLLIYSTSTLHSGVPSRFSGSGSGTDFTLTISSLQPEDFATYFCQQSYTLPYTFGQGTKVEIKR
B5: hu14C5B-1 (antibody, V domains shown, not shown: a dimerising Fc or GST)
VH: EVQLVESGGGLVQPGGSLRLSCAASGFTFSAYNINWVKQAPGKGLEWIGNLDPYYGGSNYNPKFKDKATLSRDNSKNTAYLQMNSLRAEDTAVYYCTRILWSRDYYTMDYWGQGTLVTVSS
VL: DIQVTQSPSSLSASVGDRVTITCRTSQDISNYLHWYQQKPGKAPKLLIYSTSTAHSGVPSRFSGSGSGTDFTLTISSLQPEDFATYFCQQSYTLLYTFGQGTKVEIKR
B6: hu14C5B-6 (antibody, V domains shown, not shown: a dimerising Fc or GST)
VH: EVQLVESGGGLVQPGGSLRLSCAASGFTFSLYNINWVKQAPGKGLEWIGNLDPYYGGSNYNPKFKDKATLSRDNSKNTAYLQMNSLRAEDTAVYYCTRILWSRDYYTMDYWGQGTLVTVSS
VL: DIQVTQSPSSLSASVGDRVTITCRTSQDISNYLHWYQQKPGKAPKLLIYSTSTLHSGVPSRFSGSGSGTDFTLTISSLQPEDFATYFCQQSYTLPYTFGQGTKVEIKR

The binders below were run against 重组人HER2蛋白的胞外区 (rHER2-ECD) (human) (UniProt P04626) (assay: SPR (BIACORE3000), rHER2-ECD coupled to CM5 chip, antibody in flow, 25 °C).
With B1 the Kd was 0.295 nM. Work on B2 yielded a Kd of 0.242 nM. Binder B3 has a Kd of 31.5 nM. In the case of B4, the Kd is reported as 0.186 nM. B5 gave a Kd of 8.53 nM. B6 was tested, and the Kd was 4.62 nM.
